Measurements taken from paper PMC11167270 (Heliyon, 2024).

B1: Sac10b1 (natural protein, Sulfolobus acidocaldarius)
chain: MSSGATPSNVVLVGKKPVMNYVLAALTLLNQGVSEITIKARGRAISKAVDTVEIVRNRFLPDKIEVKEIRIGSQVVTSQDGRQSRVSTIEIGIRKKA
B2: Sac10b1 R58A (natural protein, Sulfolobus acidocaldarius)
chain: MSSGATPSNVVLVGKKPVMNYVLAALTLLNQGVSEITIKARGRAISKAVDTVEIVRNAFLPDKIEVKEIRIGSQVVTSQDGRQSRVSTIEIGIRKKA
B3: Sac10b1 F59A (natural protein, Sulfolobus acidocaldarius)
chain: MSSGATPSNVVLVGKKPVMNYVLAALTLLNQGVSEITIKARGRAISKAVDTVEIVRNRALPDKIEVKEIRIGSQVVTSQDGRQSRVSTIEIGIRKKA

Experiments:
[1] = molecular target: Sac10b2 (Sulfolobus acidocaldarius); assay: AUC
AUC = molecular target: the molecule itself; assay: AUC

| Molecule | stoichiometry N (AUC) | also measured |
| --- | --- | --- |
| Sac10b2 (natural protein) | – | stoichiometry N [1]: 2 |
| B1 | 2 | – |
| B2 | – | binding result (AUC): binds |
| B3 | 2 | – |
